This is an account of results in US20260055205A1 (published 2026).

For the assay, the target named is T1, human PSMA (human, UniProt Q04609 44-750, limits assumed).
T1 construct: also called huPSMA; hPSMA
Kind of assay: binding screen.

T1 sequence (Q04609 44-750 limits assumed): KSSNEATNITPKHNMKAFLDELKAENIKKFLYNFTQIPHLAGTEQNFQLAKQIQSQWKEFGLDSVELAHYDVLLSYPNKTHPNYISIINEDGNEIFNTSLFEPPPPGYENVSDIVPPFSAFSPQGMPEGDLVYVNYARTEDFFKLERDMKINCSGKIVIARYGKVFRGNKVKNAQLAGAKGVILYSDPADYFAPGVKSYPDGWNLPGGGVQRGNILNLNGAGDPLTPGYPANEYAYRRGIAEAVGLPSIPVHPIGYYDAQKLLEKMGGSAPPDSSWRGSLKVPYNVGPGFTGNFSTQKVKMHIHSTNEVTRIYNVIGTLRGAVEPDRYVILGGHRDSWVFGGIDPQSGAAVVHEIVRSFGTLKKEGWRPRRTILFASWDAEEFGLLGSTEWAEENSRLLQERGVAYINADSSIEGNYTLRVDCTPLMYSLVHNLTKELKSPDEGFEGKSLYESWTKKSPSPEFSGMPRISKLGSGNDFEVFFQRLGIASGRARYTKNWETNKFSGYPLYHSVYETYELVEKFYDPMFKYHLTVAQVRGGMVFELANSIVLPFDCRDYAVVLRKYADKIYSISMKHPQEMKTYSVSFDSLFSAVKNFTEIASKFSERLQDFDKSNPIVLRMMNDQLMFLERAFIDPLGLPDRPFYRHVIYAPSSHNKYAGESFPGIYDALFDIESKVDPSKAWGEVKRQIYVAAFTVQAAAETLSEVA

B1: PSMA.324 (bispecific antibody, V domains shown)
VH: QVQLVESGGGVVQPGRSLRLSCAASGRTFGIYVMGWFRQAPGKEREFVGAISWSGSNRKVSDSVKGRFTISRDNSKNTLYLQMNSLRAEDTAVAFCAASNKLYGRTWYDFNESDYWGQGTQVTVSS
notes: TCE with CD3.23; also called AC3726
As for B1, the binding result was “no binding”.

B2: PSMA.330 (bispecific antibody, V domains shown)
VH: QVQLVESGGGVVQPGRSLRLSCAASGRTFGIYVMGWFRQAPGKEREFVGAISWSGSNRKVSDSVKGRFTISRDNSKNTLYLQMNSLRAEDTAVSFCAASNKLYGRTWYDFNESDYWGQGTQVTVSS
notes: TCE with CD3.23; also called AC3732
Turning to B2, the binding result is reported as “no binding”.

B3: PSMA.357 (bispecific antibody, V domains shown)
VH: QVQLVESGGGVVQPGRSLRLSCAASGRTFGIYVWGWFRQAPGKEREFVGAMSWSGSNRKVSDSVKGRFTISRDNSKNTLYLQMNSLRAEDTAVYFCAASNKGYGRTWYDFNESDYWGQGTQVTVSS
notes: TCE with CD3.23; also called AC3759
On to B3, for which the dissociation constant Kd (as a rule, the equilibrium constant for the complex coming apart) came to 24.6 nM.

B4: PSMA.349 (bispecific antibody, V domains shown)
VH: QVQLVESGGGVVQPGRSLRLSCAASGRTFGIYVWGWFRQAPGKEREFVGAMSWSGSNRKVSDSVKGRFTISRDNSKNTLYLQMNSLRAEDTAVYYCAASNKDYGRTWYDFNESDYWGQGTQVTVSS
notes: TCE with CD3.23; also called AC3751
The molecule B4 registered a Kd of 18 nM.

B5: PSMA.347 (bispecific antibody, V domains shown)
VH: QVQLVESGGGVVQPGRSLRLSCAASGRTFGIYVWGWFRQAPGKEREFVGAMSWSGSNRKVSDSVKGRFTISRDNSKNTLYLQMNSLRAEDTAVYYCGASNKLYGRTWYDFNESDYWGQGTQVTVSS
notes: TCE with CD3.23; also called AC3749
In turn, B5 showed an equilibrium dissociation constant (Kd) of 7.3 nM.

B6: PSMA.338 (bispecific antibody, V domains shown)
VH: QVQLVESGGGVVQPGRSLRLSCAASGRTFGIYVMGWFRQAPGKEREFVGAISWSGSNRKVSDSVKGRFTISRDNSKNTLYLQMNSLRAEDTAVRFCAGSNKLYGRTWYDFNESDYWGQGTQVTVSS
notes: TCE with CD3.23; also called AC3740
Regarding B6, the binding result is “no binding”.

B7: PSMA.325 (bispecific antibody, V domains shown)
VH: QVQLVESGGGVVQPGRSLRLSCAASGRTFGIYVMGWFRQAPGKEREFVGAISWSGSNRKVSDSVKGRFTISRDNSKNTLYLQMNSLRAEDTAVRFCAASNKLYGRTWYDFNESDYWGQGTQVTVSS
notes: TCE with CD3.23; also called AC3727
On to B7, for which the binding result is “no binding”.

B8: PSMA.346 (bispecific antibody, V domains shown)
VH: QVQLVESGGGVVQPGRSLRLSCAASGRTFGIYVWGWFRQAPGKEREFVGAMSWSGSNRKVSDSVKGRFTISRDNSKNTLYLQMNSLRAEDTAVDYCAASNKLYGRTWYDFNESDYWGQGTQVTVSS
notes: TCE with CD3.23; also called AC3748
Take B8: the binding result is listed as “no binding”.

B9: PSMA.343 (bispecific antibody, V domains shown)
VH: QVQLVESGGGVVQPGRSLRLSCAASGRTFGIYVMGWFRQAPGKEREFVGAISWSGSNRKVSDSVKGRFTISRDNSKNTLYLQMNSLRAEDTAVTFCAGSNKLYGRTWYDFNESDYWGQGTQVTVSS
notes: TCE with CD3.23; also called AC3745
On to B9, for which the binding result was “no binding”.

B10: PSMA.336 (bispecific antibody, V domains shown)
VH: QVQLVESGGGVVQPGRSLRLSCAASGRTFGIYVMGWFRQAPGKEREFVGAISWSGSNRKVSDSVKGRFTISRDNSKNTLYLQMNSLRAEDTAVYFCAASNKGYGRTWYDFNESDYWGQGTQVTVSS
notes: TCE with CD3.23; also called AC3738
Turning to B10, the Kd worked out at 129 nM.

B11: PSMA.333 (bispecific antibody, V domains shown)
VH: QVQLVESGGGVVQPGRSLRLSCAASGRTFGIYVMGWFRQAPGKEREFVGAISWSGSNRKVSDSVKGRFTISRDNSKNTLYLQMNSLRAEDTAVYFCAASNKRYGRTWYDFNESDYWGQGTQVTVSS
notes: TCE with CD3.23; also called AC3735
As for B11, the binding result is given as “no binding”.

B12: PSMA.341 (bispecific antibody, V domains shown)
VH: QVQLVESGGGVVQPGRSLRLSCAASGRTFGIYVMGWFRQAPGKEREFVGAISWSGSNRKVSDSVKGRFTISRDNSKNTLYLQMNSLRAEDTAVKFCAGSNKLYGRTWYDFNESDYWGQGTQVTVSS
notes: TCE with CD3.23; also called AC3743
As for B12, the binding result is “no binding”.

B13: PSMA.334 (bispecific antibody, V domains shown)
VH: QVQLVESGGGVVQPGRSLRLSCAASGRTFGIYVMGWFRQAPGKEREFVGAISWSGSNRKVSDSVKGRFTISRDNSKNTLYLQMNSLRAEDTAVYFCAASNKDYGRTWYDFNESDYWGQGTQVTVSS
notes: TCE with CD3.23; also called AC3736
As to B13, binding was characterised by a dissociation constant (Kd) of 70.6 nM.

B14: PSMA.352 (bispecific antibody, V domains shown)
VH: QVQLVESGGGVVQPGRSLRLSCAASGRTFGIYVWGWFRQAPGKEREFVGAMSWSGSNRKVSDSVKGRFTISRDNSKNTLYLQMNSLRAEDTAVDFCAASNKLYGRTWYDFNESDYWGQGTQVTVSS
notes: TCE with CD3.23; also called AC3754
For the molecule B14, the binding result is listed as “no binding”.

B15: PSMA.351 (bispecific antibody, V domains shown)
VH: QVQLVESGGGVVQPGRSLRLSCAASGRTFGIYVWGWFRQAPGKEREFVGAMSWSGSNRKVSDSVKGRFTISRDNSKNTLYLQMNSLRAEDTAVYYCAASNKGYGRTWYDFNESDYWGQGTQVTVSS
notes: TCE with CD3.23; also called AC3753
Turning to B15, binding was characterised by a dissociation constant (Kd) of 32.6 nM.

B16: PSMA.328 (bispecific antibody, V domains shown)
VH: QVQLVESGGGVVQPGRSLRLSCAASGRTFGIYVMGWFRQAPGKEREFVGAISWSGSNRKVSDSVKGRFTISRDNSKNTLYLQMNSLRAEDTAVGFCAASNKLYGRTWYDFNESDYWGQGTQVTVSS
notes: TCE with CD3.23; also called AC3730
For the molecule B16, the binding result was “no binding”.

B17: PSMA.350 (bispecific antibody, V domains shown)
VH: QVQLVESGGGVVQPGRSLRLSCAASGRTFGIYVWGWFRQAPGKEREFVGAMSWSGSNRKVSDSVKGRFTISRDNSKNTLYLQMNSLRAEDTAVYYCAASNKEYGRTWYDFNESDYWGQGTQVTVSS
notes: TCE with CD3.23; also called AC3752
The molecule B17 came in with a Kd of 7.4 nM.

B18: PSMA.353 (bispecific antibody, V domains shown)
VH: QVQLVESGGGVVQPGRSLRLSCAASGRTFGIYVWGWFRQAPGKEREFVGAMSWSGSNRKVSDSVKGRFTISRDNSKNTLYLQMNSLRAEDTAVYFCGASNKLYGRTWYDFNESDYWGQGTQVTVSS
notes: TCE with CD3.23; also called AC3755
As to B18, the Kd turned out to be 5.1 nM.

B19: PSMA.339 (bispecific antibody, V domains shown)
VH: QVQLVESGGGVVQPGRSLRLSCAASGRTFGIYVMGWFRQAPGKEREFVGAISWSGSNRKVSDSVKGRFTISRDNSKNTLYLQMNSLRAEDTAVNFCAGSNKLYGRTWYDFNESDYWGQGTQVTVSS
notes: TCE with CD3.23; also called AC3741
Regarding B19, the binding result is “no binding”.

B20: PSMA.342 (bispecific antibody, V domains shown)
VH: QVQLVESGGGVVQPGRSLRLSCAASGRTFGIYVMGWFRQAPGKEREFVGAISWSGSNRKVSDSVKGRFTISRDNSKNTLYLQMNSLRAEDTAVSFCAGSNKLYGRTWYDFNESDYWGQGTQVTVSS
notes: TCE with CD3.23; also called AC3744
Regarding B20, the binding result was “no binding”.

B21: PSMA.329 (bispecific antibody, V domains shown)
VH: QVQLVESGGGVVQPGRSLRLSCAASGRTFGIYVMGWFRQAPGKEREFVGAISWSGSNRKVSDSVKGRFTISRDNSKNTLYLQMNSLRAEDTAVKFCAASNKLYGRTWYDFNESDYWGQGTQVTVSS
notes: TCE with CD3.23; also called AC3731
On to B21, for which the binding result was “no binding”.

B22: PSMA.332 (bispecific antibody, V domains shown)
VH: QVQLVESGGGVVQPGRSLRLSCAASGRTFGIYVMGWFRQAPGKEREFVGAISWSGSNRKVSDSVKGRFTISRDNSKNTLYLQMNSLRAEDTAVYFCAGSNKLYGRTWYDFNESDYWGQGTQVTVSS
notes: TCE with CD3.23; also called AC3734
In turn, B22 had a Kd of 24.1 nM.

B23: PSMA.335 (bispecific antibody, V domains shown)
VH: QVQLVESGGGVVQPGRSLRLSCAASGRTFGIYVMGWFRQAPGKEREFVGAISWSGSNRKVSDSVKGRFTISRDNSKNTLYLQMNSLRAEDTAVYFCAASNKEYGRTWYDFNESDYWGQGTQVTVSS
notes: TCE with CD3.23; also called AC3737
On to B23, for which the dissociation constant Kd turned out to be 24.8 nM.

B24: PSMA.355 (bispecific antibody, V domains shown)
VH: QVQLVESGGGVVQPGRSLRLSCAASGRTFGIYVWGWFRQAPGKEREFVGAMSWSGSNRKVSDSVKGRFTISRDNSKNTLYLQMNSLRAEDTAVYFCAASNKDYGRTWYDFNESDYWGQGTQVTVSS
notes: TCE with CD3.23; also called AC3757
With B24, binding was put at a Kd of 17.8 nM.

B25: PSMA.356 (bispecific antibody, V domains shown)
VH: QVQLVESGGGVVQPGRSLRLSCAASGRTFGIYVWGWFRQAPGKEREFVGAMSWSGSNRKVSDSVKGRFTISRDNSKNTLYLQMNSLRAEDTAVYFCAASNKEYGRTWYDFNESDYWGQGTQVTVSS
notes: TCE with CD3.23; also called AC3758
The molecule B25 had a Kd of 7.8 nM.

B26: PSMA.345 (bispecific antibody, V domains shown)
VH: QVQLVESGGGVVQPGRSLRLSCAASGRTFGIYVWGWFRQAPGKEREFVGAMSWSGSNRKVSDSVKGRFTISRDNSKNTLYLQMNSLRAEDTAVYYCGGSNKLYGRTWYDFNESDYWGQGTQVTVSS
notes: TCE with CD3.23; also called AC3747
With B26, binding was characterised by a dissociation constant (Kd) of 6.1 nM.

B27: PSMA.331 (bispecific antibody, V domains shown)
VH: QVQLVESGGGVVQPGRSLRLSCAASGRTFGIYVMGWFRQAPGKEREFVGAISWSGSNRKVSDSVKGRFTISRDNSKNTLYLQMNSLRAEDTAVYFCGASNKLYGRTWYDFNESDYWGQGTQVTVSS
notes: TCE with CD3.23; also called AC3733
Molecule B27 returned a Kd of 12.1 nM.

B28: PSMA.337 (bispecific antibody, V domains shown)
VH: QVQLVESGGGVVQPGRSLRLSCAASGRTFGIYVMGWFRQAPGKEREFVGAISWSGSNRKVSDSVKGRFTISRDNSKNTLYLQMNSLRAEDTAVAFCAGSNKLYGRTWYDFNESDYWGQGTQVTVSS
notes: TCE with CD3.23; also called AC3739
B28: the binding result is given as “no binding”.

B29: PSMA.326 (bispecific antibody, V domains shown)
VH: QVQLVESGGGVVQPGRSLRLSCAASGRTFGIYVMGWFRQAPGKEREFVGAISWSGSNRKVSDSVKGRFTISRDNSKNTLYLQMNSLRAEDTAVNFCAASNKLYGRTWYDFNESDYWGQGTQVTVSS
notes: TCE with CD3.23; also called AC3728
With B29, the binding result was “no binding”.

B30: PSMA.340 (bispecific antibody, V domains shown)
VH: QVQLVESGGGVVQPGRSLRLSCAASGRTFGIYVMGWFRQAPGKEREFVGAISWSGSNRKVSDSVKGRFTISRDNSKNTLYLQMNSLRAEDTAVGFCAGSNKLYGRTWYDFNESDYWGQGTQVTVSS
notes: TCE with CD3.23; also called AC3742
For B30, the binding result is on record as “no binding”.

B31: PSMA.327 (bispecific antibody, V domains shown)
VH: QVQLVESGGGVVQPGRSLRLSCAASGRTFGIYVMGWFRQAPGKEREFVGAISWSGSNRKVSDSVKGRFTISRDNSKNTLYLQMNSLRAEDTAVDFCAASNKLYGRTWYDFNESDYWGQGTQVTVSS
notes: TCE with CD3.23; also called AC3729
As for B31, the binding result was “no binding”.
